According to PMC3737563, “Investigation of DNA sequence recognition by a streptomycete MarR family transcriptional regulator through surface plasmon resonance and X-ray crystallography” (Nucleic Acids Research, 2013):

T1: SCO3205 (MarR family regulator) (Streptomyces coelicolor, UniProt Q9KYU1 1-163)
T1 sequence: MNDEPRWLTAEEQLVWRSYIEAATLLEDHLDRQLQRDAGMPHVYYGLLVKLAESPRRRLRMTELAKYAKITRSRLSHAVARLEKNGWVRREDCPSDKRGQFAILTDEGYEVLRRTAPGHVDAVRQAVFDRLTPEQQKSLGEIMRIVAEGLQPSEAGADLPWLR

B1: SCO3205, MarR family transcriptional regulator from Streptomyces coelicolor (natural protein, UniProt Q9KYU1 1-163, looked up)
chain: T1 sequence
notes: SCO3205, MarR family transcriptional regulator, Streptomyces coelicolor; the tag was not removed for any experiment; Total deduced molecular mass 20523 Da; also called MFR; source: E. coli BL21 (DE3), purified (HisTrap nickel column, Superdex 75 gel filtration); not shown: His tag, N-terminal, kept
B2: symmetrized O3204 22-mer (dsDNA)
DNA 1: AAAGATTGAGATCTCAATCTTT
DNA 2: AAAGATTGAGATCTCAATCTTT

Legend:
[1] = target: the molecule itself; experiment: not stated; purified SCO3205 in solution; the method is told only in the Supplementary Methods
[2] = target: T1, SCO3205 (MarR family regulator); experiment: crystal structure; 2.8 A; one dimer per duplex; SPR (ReDCaT, Biacore T200) in HBS-EP+: 10 mM HEPES pH 7.4, 150 mM NaCl, 3 mM EDTA, 0.05% P20, 20°C; details: protein: recombinant; tags: N-terminal His tag plus TEV site, not removed; chain copies: 2; blunt; self-complementary, 2 copies

| Binder | stoichiometry N [1] | binding result [2] |
| --- | --- | --- |
| B1 | 2 | – |
| B2 | – | binds |
